This data set can be described thus: protein stability index of a GFP-peptide fusion (GPS, HEK-293T) (PSI 1-6); higher = more stable. As to conditions: c terminus: a fixed tail appended.

± gives the standard deviation.
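Further: 24-mer peptide tiles fused after GFP, lentivirally expressed, FACS-sorted into six equal bins by GFP/DsRed ratio, decoded by Illumina sequencing, PSI is the read-weighted mean bin number.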

In turn, EVSLDSLDLRVKGILSSQAEGLAN [EHMT1] showed a protein stability index (treatment: DMSO) of 4.18 ± 0.19 and a protein stability index (treatment: MLN4924 1 uM, 8 h) of 4.05 ± 0.42.
On to DMEKILEIIRVILKLYEQWKNFDE [CCNC], for which the protein stability index is 2.47 ± 0.2 (treatment: DMSO) and 2.66 ± 0.42 (treatment: MLN4924 1 uM, 8 h).
Turning to EDLATAYNNRGQIKYFRVDFYEAM [TTC32], the protein stability index runs as follows: (treatment: DMSO) 2.21 ± 0.17; (treatment: MLN4924 1 uM, 8 h) 2.23 ± 0.32.
For MDVSREEAPQWLESDSCQKCEQPF [WDFY1] the same measures were 4.89 ± 0.17 and 4.92 ± 0.32.
As for SSPGPWGLEALAGGDLMPAPADPT [FCHO1], the protein stability index (treatment: DMSO) turned out to be 4.78 ± 0.4 and the protein stability index (treatment: MLN4924 1 uM, 8 h) was 4.65 ± 0.23.
For SDVLIGDILVLLGASLYAISNVCE [SLC35F2] the same measures were 2.79 ± 0.28 and 3.36 ± 0.67.
The matching figures for EAPASVVPFVRVKREREVDEDSEP [USP39]: 5.51 ± 0.17 and 5.51 ± 0.2.
The matching figures for PTLKKCEDVARPTQRLWDFTQSGP [GALNT9]: 3.69 ± 0.24 and 4 ± 0.17.
Take PNKDMVVQLIDDFKISGMNGIHVC [SRPK2]: the protein stability index by setting is: (treatment: DMSO) 2.38 ± 0.27; (treatment: MLN4924 1 uM, 8 h) 2.35 ± 0.25.
The matching figures for TRGRGGLLRDHIPRGKEELESLGG [MOG]: 4.72 ± 0.081 and 4.95 ± 0.19.
For the sequence ASTVTEIVKQQDPLVYKAIQQGIN [ACSBG2], the protein stability index is, setting by setting: (treatment: DMSO) 3.49 ± 0.3; (treatment: MLN4924 1 uM, 8 h) 3.96 ± 0.35.
The matching figures for QEAVPLGLGLEDADWTQGLPWRFE [TEX19]: 3.34 ± 0.21 and 3.34 ± 0.3.
On to NKQGHGCESDIWALGCVMYTMLLG [PLK2], for which the protein stability index amounted to 2.87 ± 0.58 (treatment: DMSO) and 2.54 ± 0.064 (treatment: MLN4924 1 uM, 8 h).
The matching figures for ESQSTSLRGSYNSLHDGSDGLDGI [LURAP1L]: 4.91 ± 0.11 and 4.68 ± 0.17.
The matching figures for YDDDIDDEDEEEEDADCYDDDDSG [UBE2R2]: 5.58 ± 0.11 and 5.61 ± 0.24.
Turning to AFEESKIDEHHFVAVALRKPDGSR [AASDHPPT], the protein stability index worked out at 4.01 ± 0.52 (treatment: DMSO) and 4.2 ± 0.53 (treatment: MLN4924 1 uM, 8 h).
The matching figures for SPFSPGLFHRLDEDWDSALFAELG [ATF6]: 2.6 ± 0.28 and 2.44 ± 0.16.
The matching figures for GQLRVFGAGLLSSISELKHALSGH [TPH1]: 2.24 ± 0.27 and 2.13 ± 0.19.
For EKSQAYPRRRRPGCYAYRQNPEAI [MYORG] the same measures were 3.34 ± 0.27 and 3.32 ± 0.14.
The sequence SCYKGHREIARYLLEQGAQVNRRS [FEM1A] had a protein stability index (treatment: DMSO) of 2.93 ± 0.14 and a protein stability index (treatment: MLN4924 1 uM, 8 h) of 3.11 ± 0.48.
The matching figures for TPNSKYVKLNVGGSLHYTTLRTLT [KCTD13]: 2.23 ± 0.15 and 2.02 ± 0.25.
For AVEISDHPGEHEVGEPEFHYIAGA [CPXM2] the same measures were 4.82 ± 0.57 and 5.17 ± 0.32.
The matching figures for LRTLFTDLFEKKGYTFDYAYDWVG [CSNK1G1]: 2.2 ± 0.21 and 2.12 ± 0.39.
For IAVLPRYVEIRTFEPRLLVQSIEL [VPS39], the protein stability index stood at 2.97 ± 0.57 (treatment: DMSO) and 2.88 ± 0.38 (treatment: MLN4924 1 uM, 8 h).
For LQQQNEDLKARIDQNTVVTRQLSE [MTUS2] the same measures were 5.1 ± 0.26 and 5.21 ± 0.083.
The matching figures for NYLVRLSFHNLKFDCSTANKIFLR [ZNF277]: 2.46 ± 0.4 and 2.55 ± 0.25.
For RGQEPARADQLCQQELRELRRELE [PRPH] the same measures were 4.48 ± 0.36 and 4.53 ± 0.5.
Turning to EWPEYFMAVAFLSAQRSKDPNSQV [DCTD], the protein stability index by setting is: (treatment: DMSO) 2.35 ± 0.26; (treatment: MLN4924 1 uM, 8 h) 2.06 ± 0.48.
Turning to TDKVGTEAAFHPIEEYMVHVEEHF [FUT8], the protein stability index came out at 4.07 ± 0.27 (treatment: DMSO) and 4.31 ± 0.33 (treatment: MLN4924 1 uM, 8 h).
The matching figures for PRKTAAPVNALVSHLLVVEPEKLY [ESRRA]: 2.83 ± 0.22 and 2.5 ± 0.18.
For SAVQYFQFYGYLSQQQNMMQDYVR [CARM1] the same measures were 2.6 ± 0.72 and 3.35 ± 0.64.
The matching figures for IPVAMEHQPPYIIAVLPRYVEIRT [VPS39]: 2.6 ± 0.48 and 2.44 ± 0.46.
Consider NLDEEMKKIRQVIRKYNYVAMDTE [CNOT7], for which the protein stability index stood at 3.47 ± 0.14 (treatment: DMSO) and 3.38 ± 0.22 (treatment: MLN4924 1 uM, 8 h).
For DIMETSGWKSMIQSHPHLVAEAFR [SPOPL], the protein stability index is, setting by setting: (treatment: DMSO) 2.49 ± 0.37; (treatment: MLN4924 1 uM, 8 h) 2.68 ± 0.54.
The matching figures for QRVVYLEGCGPPLRRWLRANLAAS [TSPAN10]: 2.26 ± 0.33 and 2.11 ± 0.24.
For YEFHLEFLDLVKPEPVYKLTQRQV [HACD3] the same measures were 2.54 ± 0.63 and 2.12 ± 0.076.
The matching figures for QGELADQDVDPVHNLIEQVSLGLG [FBXO33]: 4.55 ± 0.27 and 4.66 ± 0.072.
For the sequence VCMTFMKQIAGGDVTAKNIWLAES [INTS3], the protein stability index came out at 2.53 ± 0.62 (treatment: DMSO) and 2.92 ± 0.6 (treatment: MLN4924 1 uM, 8 h).
For TVIFYGADSEQADIARMLYKDTCH [ZMYND11], the protein stability index by setting is: (treatment: DMSO) 2.28 ± 0.17; (treatment: MLN4924 1 uM, 8 h) 2.68 ± 0.4.
In the case of TEPSGRVAKKTPTKRSTLIISGVS [C2CD2L], the protein stability index is, setting by setting: (treatment: DMSO) 3.76 ± 0.27; (treatment: MLN4924 1 uM, 8 h) 3.92 ± 0.34.
The matching figures for IHAYNLGTNAWEEIATKPHEKIGF [KLHDC10]: 2.48 ± 0.15 and 2.57 ± 0.54.
For FPRKSELTEHQRIHTGIKPHQCSE [ZNF649] the same measures were 3.92 ± 0.23 and 4.24 ± 0.18.
The matching figures for LVYDVEVKSHLLDYVMTTLLFSDK [TRIP13]: 2.9 ± 0.45 and 2.92 ± 0.47.
As for FLLDVIPVDGARYRWQGRRWEPSG [TBX6], the protein stability index is 1.81 ± 0.33 (treatment: DMSO) and 2.4 ± 0.3 (treatment: MLN4924 1 uM, 8 h).
With ILELVVLEQFVAILPKELQTWVRD [ZNF24], the protein stability index reads like this: (treatment: DMSO) 2.35 ± 0.54; (treatment: MLN4924 1 uM, 8 h) 2.45 ± 0.46.
The matching figures for KSKLTYMCRVDLRGHMPEWYTKSF [DLC1]: 2.68 ± 0.65 and 2.43 ± 0.29.
The matching figures for NPEEIRGGGLLKYSNLLVRDFRPT [TENT5C]: 3.04 ± 0.3 and 3.14 ± 0.31.
The matching figures for SQIHNNGQSDFRPKNGRHAWIWHD [LOXL2]: 3.31 ± 0.35 and 3.22 ± 0.22.
On to GSLGPVPVLRFDALWQVLARDCFA [TRIM14], for which the protein stability index came out at 2.42 ± 0.83 (treatment: DMSO) and 2.89 ± 0.43 (treatment: MLN4924 1 uM, 8 h).
With SLKRHLKTHTGEKPHRCHNCGKSF [ZNF449], the protein stability index came out at 2.91 ± 0.56 (treatment: DMSO) and 2.97 ± 0.15 (treatment: MLN4924 1 uM, 8 h).
Take LRDKTVMIIVAISPKYKQDVEGAE [TRAF3IP2]: the protein stability index runs as follows: (treatment: DMSO) 2.4 ± 0.047; (treatment: MLN4924 1 uM, 8 h) 2.97 ± 0.69.
For RAVLGGLSQTDPRAGGGGGGDYGL [PPTC7] the same measures were 4.01 ± 0.84 and 3.85 ± 1.5.
The matching figures for RLEAARLSLEEELSRVKAAALSER [LRRC45]: 3.71 ± 0.21 and 4.04 ± 0.39.
The matching figures for GRFCGQQNPPVIKSSGRFLWIKFF [NETO1]: 2.1 ± 0.84 and 2.39 ± 1.1.
Regarding KVLGHVNNILISAVLPTAFRVAKK [GDAP1], the protein stability index (treatment: DMSO) amounted to 2.83 ± 0.59 and the protein stability index (treatment: MLN4924 1 uM, 8 h) stood at 2.44 ± 1.3.
For LTKFLEEHPGGEEVLREQAGGDAT [CYB5A] the same measures were 5.44 ± 0.24 and 5.44 ± 0.26.
For VSLGLGQPWHAVMDIESLSVFTEP [FBXO33] the same measures were 2.31 ± 0.56 and 1.99 ± 0.26.
The matching figures for EMRQALQALLKENRLLQEENRTLQ [CBY2]: 2.53 ± 0.45 and 2.65 ± 0.41.
In the case of LSEGCRAELAETIVYARVLALHPE [CCDC3], the protein stability index is, setting by setting: (treatment: DMSO) 2.92 ± 1.4; (treatment: MLN4924 1 uM, 8 h) 1.83 ± 0.38.
For FGGNPRFLSLHRAHLGEEAHKCLE [ZNF263] the same measures were 2.47 ± 0.5 and 3.14 ± 0.61.
For MLGLALGGLVVSAASLAGCLGALC [TSPAN10] the same measures were 3.15 ± 0.55 and 3.04 ± 0.37.
With FLTAPLLEFLLALYFLFADAMQLN [CMTM3], the protein stability index reads like this: (treatment: DMSO) 2.94 ± 0.29; (treatment: MLN4924 1 uM, 8 h) 3.17 ± 0.3.
The matching figures for EPTETLLSEKEINAREESLVEELS [BCL2L13]: 5.46 ± 0.12 and 5.55 ± 0.26.
For the sequence TMPLYLEDDIRPDIKDDIYDPTYK [SCD], the protein stability index by setting is: (treatment: DMSO) 4.46 ± 0.3; (treatment: MLN4924 1 uM, 8 h) 4.68 ± 0.17.
For RESRILFSTWNLDHIIEKKRTIIP [DFFB] the same measures were 2.35 ± 0.22 and 2.52 ± 0.22.
The matching figures for QMGVSAKRRPKAQPTTLVLPPQYV [MED27]: 2.99 ± 0.19 and 3.1 ± 0.19.
For LPHLQDSFVDKLLDLMPRLMTSKP [INTS4] the same measures were 2.16 ± 0.2 and 2.15 ± 0.24.
Regarding RTEIISRSWFPSAPGSASSSKVSG [YJU2B], the protein stability index runs as follows: (treatment: DMSO) 3.94 ± 0.13; (treatment: MLN4924 1 uM, 8 h) 3.97 ± 0.15.
The matching figures for CKVDCEANLTPNVGGYFVDKFVAT [P3H4]: 2.84 ± 0.23 and 2.55 ± 0.29.
As to DMWSIGVITYILLSGASPFLGETK [DAPK3], the protein stability index reads like this: (treatment: DMSO) 3.15 ± 0.3; (treatment: MLN4924 1 uM, 8 h) 2.97 ± 0.36.
The matching figures for PSTICFGQGAARGFKSNKKKTKQC [ZNF511]: 4.14 ± 0.83 and 3.84 ± 0.068.
For VDAGAEPGRSRMISQEEFARQLQL [LPCAT4], the protein stability index was 4.52 ± 0.27 (treatment: DMSO) and 4.5 ± 0.15 (treatment: MLN4924 1 uM, 8 h).

For the origin of these results see the supplement of paper PMC10567573.
